Reference: paper PMC12873404
pKd: −log10 of the molar value.

Target: BTN2A2-His tag protein (without Fc tag) (human) (UniProt Q8WVV5)
Experiment: MST

“recombinant CD45RO-Fc protein (from UniProt P08575-4 26-1145) (Fc fusion)” showed a pKd of 7.20.
